B1: monoclonal antibody 40H3 (antibody, V domains shown)
VH: QVQLKQSGPGLVQPSQSLSITCTVSGFSLTNYGIHWLRQSPGKGLEWLGMMWRGGGTDYNAAFISRLTITKDTSKSQVFFRMNNLQTNDTAIYYCARKGVGMGLGYWGQGTSVTVSS
VL: DIQMTQSPASQSASLGESVTITCLASQTIGTWVAWYQQKPGRSPQLLIYGATNLADGVPSRFSGSGSGTKFSFKISSLQAEDFVSYYCQQLYSNPYTFGGGTKLEIK
B2: monoclonal antibody 1D9 (antibody, V domains shown)
VH: QVQLKQSGRSLVQPSQSLSITCTVSGFSLTDYGVHWIRQSPGKGLEWLGVIWRSGRTDYNAVFMSRLSITKDNSKSQVFFKMNGLQTDDTAIYYCAKNGPFGNFAGYWGQGTPVAVSA
VL: DIVMSQSPSSLAVSVGEKVTMRCRSSQSLLDSYHQKNYLAWYLQKPGQSPKLLIYWASTRESGVPDRFTGSGSGTDFTLTISSVKAEDLAVYYCQEYYRYPYTFGGGTKLEIK
B3: monoclonal antibody 11E11 (antibody, V domains shown)
VH: QVQLKQSGPSLVQPSQSLSITCTVSGFSLTNYGVHWIRQSPGKGLEWLGVKWRGGRTDYNAAFMSRLSITRDNSRSQVFFKMNSLQTDDTAIYYCAKNGPFGNFAGYWGQGTLVTVSA
VL: DIVMSQSPSSLAVSVGEKVSLTCKSSQSLLDNQKHYLAWYQQKPGQSPKLLIYWASTRESGVPDRFTGSGSGTEFTLTISSVKAEDLAVYYCQQFYNYPYTFGGGTKLEIK
B4: monoclonal antibody 4A4 (antibody, V domains shown)
VH: QVQLKQSGRSLVQPSQSLSITCTVSGFSLTDYGVHWIRQSPGKGLEWLGVIWRSGRTDYNAVFMSRLSITKDNSKSQVFFKMNGLLIEDTAIYYCAKNGPFGNFAGYWGQGTPVAVSA
VL: DIVMSQSPSSLAVSVGEKVTMRCRSSQSLLDSYHQKNYLAWYLQKPGQSPKLLIYWASTRESGVPDRFTGSGSGTDFTLTISSVKAEDLAAYYCQEYYRYPYTFGGGTKLEIK
B5: monoclonal antibody 11G3 (antibody, V domains shown)
VH: QVQLKQSGPSLVQPSQSLSITCTVSGFSLTNYGVHWVRQSPGKGLEWLGVMWRGGRTDYNAAFMSRLSITKDNSRSQVFFKMNSLQTDDAAIYYCAKNGPFGNFAGYWGQGTLVTVST
VL: DIVMSQSPSSLPVSVGEKVSLTCKSSRSLLDNQKHYLAWYQQKPGQSPKLLIYWASTRESGVPDRFTGSGSGTEFTLTISSVKAEDLAVYYCQQFYNYPYTFGGGTKLEIK
B6: monoclonal antibody 3D10 (antibody, V domains shown)
VH: QVQLKQSGPGLVQPSQSLSIICTVSGFSLTRNGVHWVRQSPGKGLEWVGVIWRSGRTDYDAAFMSRLSITKDNSKSQVFFKMNSLQADDTAIYYCVKNGDDGNYGTYWGQGTLVTVSA
VL: DIVMSQSPSSLGVSVGEKVTMSCKSSQSLLDSRNQKNYLAWYQQKPGQSPKLLIYWASTRESGVPDRFTGSGSGTEFTLTISSVKAEDLAIYYCQQYYNYPYTFGGGTKLEIT
B7: monoclonal antibody 9G11 (antibody, V domains shown)
VH: QVQLKQSGPGLVQPSQSLSITCTVSGFSLTRNGVHWVRQSPGKGLEWVGVIWRGGRTDYDAAFMSRLSITKDNSKSQVFFKMNSLQADDTAIYYCVKNGDDGNYGTYWGQGTLVTVSA
VL: DIVMSQSPSSLGVSVGEKVTMSCKSSQSLLDSRNQKNYLAWYQQKPGQSPKLLIYWASTRESGVPDRFTGSGSGTEFTLTISSVKAEDLAIYYCQQYYNYPYTFGGGTKLEIT

The first test has as its target human wtEGFR on F98_(EGFR) cells (human) (UniProt P00533). Description: […], FACS buffer.
B1 yielded a median fluorescence intensity of 187 units.

Another test addresses wtEGFR at physiological levels on WI-38 cells (human (endogenous in WI-38)) (UniProt P00533). Description: […], FACS buffer.
For the molecule B2, the median fluorescence intensity was < 100 units. For B3, the median fluorescence intensity was < 100 units. As to B4, the median fluorescence intensity is < 100 units. For B5, the median fluorescence intensity was < 100 units. Regarding B6, the median fluorescence intensity was < 100 units. Regarding B7, the median fluorescence intensity is < 100 units. In the case of B1, the median fluorescence intensity was < 100 units.

(Values after PMC6947844.)
